These results are taken from patent US20260139026A1 (Memorial Sloan Kettering, published 2026).

Series [1] addresses P5 peptide … pulsed on HLA-A*03:01 cells (human, UniProt A*03:01). Put plainly: cell-based or functional assay.
Series [2] concerns the target P6 peptide … pulsed on HLA-A*03:01 cells (human, UniProt A*03:01). Put plainly: cell-based or functional assay.
Series [3] addresses P7 peptide … pulsed on HLA-A*03:01 cells (human, UniProt A*03:01). The experiment in a line: cell-based or functional assay.
Series [4] addresses P8 peptide … pulsed on HLA-A*03:01 cells (human, UniProt A*03:01). The experiment in a line: cell-based or functional assay.
In series [5] the target is P9 peptide … pulsed on HLA-A*03:01 cells (human, UniProt A*03:01). Put plainly: cell-based or functional assay.
For series [6], the target named is P2 peptide … pulsed on HLA-A*03:01 cells (human, UniProt A*03:01). Put plainly: cell-based or functional assay.
The target of series [7] is P3 peptide … pulsed on HLA-A*03:01 cells (human, UniProt A*03:01). Put plainly: cell-based or functional assay.
Series [8] deals with P4 peptide … pulsed on HLA-A*03:01 cells (human, UniProt A*03:01). Put plainly: cell-based or functional assay.
Series [9] addresses T1, recombinant HLA-A*03:01 (human).
T1 construct: MHC class I molecule used in differential scanning fluorimetry and crystallography. 'Recombinant' is printed only for the crystal structures; also called HLA-A*03:01 molecule
The experiment in a line: differential scanning fluorimetry of peptide/HLA-A*03:01, two technical replicates.
Description: Experiments included two technical replicates for each group. […] It measured the change in fluorescent signal of a dye that binds preferentially to hydrophobic resides that are exposed as an unstable protein unfolds.

B1: 1022T8 TCR (TCR, V domains shown)
V domain 1: GDSVTQMEGPVTLSEEAFLTINCTYTATGYPSLFWYVQYPGEGLQLLLKATKADDKGSNKGFEATYRKETTSFHLEKGSVQVSDSAVYFCALTVGGSYIPTFGRGTSLIVHP
V domain 2: DTEVTQTPKHLVMGMTNKKSLKCEQHMGHRAMYWYKQKAKKPPELMFVYSYEKLSINESVPSRFSPECPNSSLLNLHLHALQPEDSALYLCASSQGGQGWRETQYFGPGTRLLVLE
Consider B1, for which the “loss in function against the unmodified mutated 9-mer” value in series [1], in [2], in [3], in [4], in series [5] and in series [6] was more than 50 % loss in function each time. Besides, the “loss in function against the unmodified mutated 9-mer” value in series [7] and in series [8] was more than 50 % loss in function throughout.

B2: wildtype PIK3CA minimal peptide AHHGGWTTK (peptide)
peptide: AHHGGWTTK
notes: also called WT peptide
As for B2, in series [9], the melting temperature is 36 degrees.
